{"source": "paper PMC6663034", "about": "“ACAP1 assembles into an unusual protein lattice for membrane deformation through multiple stages” (PLoS Computational Biology, 2019)", "proteins": {"B1": {"name": "ACAP1^BAR-PH (a.a. 1-377) (domain or fragment, UniProt Q15027 1-377, looked up)", "chain": "MTVKLDFEECLKDSPRFRASIELVEAEVSELETRLEKLLKLGTGLLESGRHYLAASRAFVVGICDLARLGPPEPMMAECLEKFTVSLNHKLDSHAELLDATQHTLQQQIQTLVKEGLRGFREARRDFWRGAESLEAALTHNAEVPRRRAQEAEEAGAALRTARAGYRGRALDYALQINVIEDKRKFDIMEFVLRLVEAQATHFQQGHEELSRLSQYRKELGAQLHQLVLNSAREKRDMEQRHVLLKQKELGGEEPEPSLREGPGGLVMEGHLFKRASNAFKTWSRRWFTIQSNQLVYQKKYKDPVTVVVDDLRLCTVKLCPDSERRFCFEVVSTSKSCLLQADSERLLQLWVSAVQSSIASAFSQARLDDSPRGPGQ", "notes": "ACAP1 (Arfgap with Coil-coil, Ankryin repeat, PH domain 1), BAR-PH tandem, a.a; 1-377; also called BAR-PH tandem of ACAP1; wild-type ACAP1^BAR-PH; source: E. coli BL21 (DE3), purified (glutathione-Sepharose 4B, GST removed with Precision Protease)"}}, "target": "the molecule itself", "assay": "cryo-EM structure; cryo-electron tomography and sub-tomogram averaging of the ACAP1^BAR-PH coat on non-tubulated (spherical) portions of liposomes; average of 233 coat particles; dimer model PDB 4CKG fitted into the density; dimers to tetramer on membrane", "data": [{"protein": "B1", "values": [{"measurement": "stoichiometry N", "result": 4}]}]}
